Laboratory results: PMC4831024 (2016)
Ends that are not written are not given here.

Target: Ku70/Ku80ΔC heterodimer (human, UniProt P12956 1-609; P13010 1-590)
Experiment: FP

Ku70/Ku80ΔC heterodimer, sequence (P12956 whole entry, stated change not applied, chain 1 of 2): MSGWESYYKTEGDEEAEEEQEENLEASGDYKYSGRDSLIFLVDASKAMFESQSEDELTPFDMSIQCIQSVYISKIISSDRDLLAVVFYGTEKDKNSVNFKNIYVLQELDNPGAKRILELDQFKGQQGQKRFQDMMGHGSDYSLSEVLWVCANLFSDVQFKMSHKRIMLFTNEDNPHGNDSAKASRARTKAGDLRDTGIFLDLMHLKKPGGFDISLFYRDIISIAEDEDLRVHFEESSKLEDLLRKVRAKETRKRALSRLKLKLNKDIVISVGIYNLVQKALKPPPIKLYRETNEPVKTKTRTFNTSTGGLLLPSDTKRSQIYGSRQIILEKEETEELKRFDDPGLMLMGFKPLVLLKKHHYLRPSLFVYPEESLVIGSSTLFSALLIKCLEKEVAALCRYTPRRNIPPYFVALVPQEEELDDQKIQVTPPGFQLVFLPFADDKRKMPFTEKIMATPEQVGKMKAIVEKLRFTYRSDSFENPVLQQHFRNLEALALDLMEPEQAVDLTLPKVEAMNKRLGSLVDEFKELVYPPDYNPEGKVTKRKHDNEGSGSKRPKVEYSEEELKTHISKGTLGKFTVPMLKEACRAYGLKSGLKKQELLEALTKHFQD
Ku70/Ku80ΔC heterodimer, sequence (P13010 1-590, stated change not applied, chain 2 of 2): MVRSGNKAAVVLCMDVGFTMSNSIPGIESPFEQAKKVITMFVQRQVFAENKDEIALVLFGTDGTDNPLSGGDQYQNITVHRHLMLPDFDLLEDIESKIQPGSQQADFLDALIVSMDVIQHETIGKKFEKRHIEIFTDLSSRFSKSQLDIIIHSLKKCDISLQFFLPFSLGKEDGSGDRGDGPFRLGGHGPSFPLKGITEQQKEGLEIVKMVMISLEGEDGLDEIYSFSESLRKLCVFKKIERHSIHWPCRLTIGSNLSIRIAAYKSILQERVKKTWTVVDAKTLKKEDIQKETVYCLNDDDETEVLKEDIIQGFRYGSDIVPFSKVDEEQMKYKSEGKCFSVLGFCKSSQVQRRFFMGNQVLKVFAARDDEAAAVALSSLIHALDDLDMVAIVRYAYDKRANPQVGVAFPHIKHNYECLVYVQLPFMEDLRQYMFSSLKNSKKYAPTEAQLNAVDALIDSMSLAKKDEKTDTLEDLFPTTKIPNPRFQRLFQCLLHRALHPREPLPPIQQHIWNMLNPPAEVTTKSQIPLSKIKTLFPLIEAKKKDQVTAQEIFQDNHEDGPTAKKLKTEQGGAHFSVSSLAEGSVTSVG

Binder | Kd
Fluorescein-GGYGAQQRKCPEWMNVQN [fluorescein-labelled WRN-nA peptide (N-terminal KBM of WRN)] | 1170 nM
Fluorescein-GGYGSSAERKRRLPVWFAKG [fluorescein-labelled WRN-cA peptide (C-terminal KBM of WRN)] | 790 nM
Fluorescein-GGYGSSAERKRRLPVWFAKGSDTSKKLMDKTKRGGLFS [fluorescein-labelled WRN-cAX peptide (C-terminal KBM plus XLF-like motif of WRN)] | 720 nM
